Test results reported in publication PMC7706699.

Target: hFip1 (residues 137–243) S159C/C189S/C216S mutant, FAM-labeled (human) (UniProt Q6UN15)
Experiment: fluorescence polarisation

Kd	Substance
5.4 nM	human CPSF30 (residues 62–244) Y151A mutant (from UniProt O95639-2 62-244) (domain or fragment)
22 nM	human CPSF30 (residues 62–244) Y127A mutant (from UniProt O95639-2 62-244) (domain or fragment)
11.4 nM	human CPSF30 ZF2–C terminus (residues 62–244), wild type (from UniProt O95639-2 62-244) (domain or fragment)
